Data published in the Human Domainome abundance scans (Beltran et al. 2025).
± gives the uncertainty stated by the source.

B1: Mineralocorticoid receptor, residues 600 to 675; numbered along this chain, P08235 (parent)
chain: SKICLVCGDEASGCHYGVVTCGSCKVFFKRAVEGQHNYLCAGRNDCIIDKIRRKNCPACRLQKCLQAGMNLGARKS

Variants of: B1
Assay: abundance fitness (aPCA) (normalised: wild type 0, dead -1); higher = more abundant; growth selection in yeast, the domain comes from the species named
Conditions: Homo sapiens

Abundance fitness of substitutions, site by site:
S12: Q -0.019 ± 0.095, R 0.004 ± 0.072, V -0.106 ± 0.069, W -0.191 ± 0.12, Y 0.096 ± 0.11
G13: A -0.111 ± 0.042, C -0.407 ± 0.094, F -0.047 ± 0.085, H -0.016 ± 0.064, I -0.146 ± 0.091, K 0.019 ± 0.064, L -0.073 ± 0.04, M -0.035 ± 0.046, N 0.043 ± 0.1, P -0.157 ± 0.061, Q 0.032 ± 0.053, R 0.028 ± 0.043, S -0.033 ± 0.05, T 0.016 ± 0.059, V -0.092 ± 0.04, W -0.268 ± 0.065, Y -0.259 ± 0.1
C14: A -0.027 ± 0.046, D -0.011 ± 0.093, E -0.012 ± 0.058, F -0.146 ± 0.12, G -0.077 ± 0.055, H -0.003 ± 0.092, L -0.103 ± 0.048, M 0.015 ± 0.06, N -0.047 ± 0.11, P -0.072 ± 0.074, Q 0.013 ± 0.054, R -0.062 ± 0.041, T -0.09 ± 0.05, V -0.008 ± 0.044, W -0.049 ± 0.05, Y -0.069 ± 0.11
H15: A -0.062 ± 0.045, C -0.152 ± 0.078, D -0.119 ± 0.073, E -0.033 ± 0.059, F 0.023 ± 0.1, I -0.131 ± 0.11, K 0.032 ± 0.063, L -0.096 ± 0.043, M -0.059 ± 0.055, N -0.092 ± 0.09, P -0.066 ± 0.065, Q -0.12 ± 0.056, R -0.136 ± 0.039, S -0.075 ± 0.053, T -0.11 ± 0.052, V -0.103 ± 0.045, W 0.029 ± 0.056, Y -0.057 ± 0.085
Y16: A -0.039 ± 0.046, C -0.054 ± 0.083, D -0.025 ± 0.099, F -0.053 ± 0.093, G -0.061 ± 0.048, H -0.022 ± 0.082, I -0.213 ± 0.099, K -0.081 ± 0.057, L -0.104 ± 0.039, N -0.147 ± 0.11, P -0.125 ± 0.069, Q -0.068 ± 0.057, R -0.075 ± 0.039, S -0.097 ± 0.049, T -0.027 ± 0.049, V 0.013 ± 0.043, W 0.024 ± 0.053
G17: A -0.108 ± 0.043, C -0.049 ± 0.1, D -0.031 ± 0.086, E -0.007 ± 0.055, F -0.121 ± 0.086, H -0.208 ± 0.15, I -0.24 ± 0.16, K -0.054 ± 0.066, L -0.142 ± 0.042, M -0.055 ± 0.057, N -0.126 ± 0.094, P -0.175 ± 0.083, Q -0.065 ± 0.06, R -0.046 ± 0.04, S -0.044 ± 0.045, T -0.073 ± 0.064, V -0.228 ± 0.05, W -0.169 ± 0.062
V18: C 0.112 ± 0.061, D -0.155 ± 0.092, E -0.202 ± 0.06, F -0.274 ± 0.098, G -0.117 ± 0.042, H -0.333 ± 0.13, I 0.045 ± 0.22, K -0.101 ± 0.22, L -0.06 ± 0.044, M -0.233 ± 0.25, P -0.157 ± 0.062, Q -0.15 ± 0.067, R -0.078 ± 0.048, T -0.444 ± 0.5, W -0.457 ± 0.066, Y -0.284 ± 0.1
V19: A 0.029 ± 0.048, C -0.108 ± 0.067, D -0.008 ± 0.11, E 0.032 ± 0.056, F 0.047 ± 0.076, G -0.082 ± 0.035, H -0.091 ± 0.087, I -0.086 ± 0.079, K 0.007 ± 0.051, M 0.115 ± 0.075, N 0.112 ± 0.082, P 0.001 ± 0.058, Q -0.02 ± 0.064, R -0.019 ± 0.038, S 0.038 ± 0.053, T -0.113 ± 0.056, W -0.058 ± 0.05, Y -0.247 ± 0.11
T20: A -0.072 ± 0.051, C -0.062 ± 0.1, D -0.49 ± 0.24, E -0.522 ± 0.1, F -0.351 ± 0.25, G -0.067 ± 0.046, H -0.186 ± 0.094, I -0.082 ± 0.075, K -0.727 ± 0.22, L -0.17 ± 0.048, M -0.194 ± 0.082, N 0.064 ± 0.11, P -0.691 ± 0.13, Q -0.244 ± 0.081, R -0.75 ± 0.085, S -0.017 ± 0.049, V 0.032 ± 0.046, W -0.325 ± 0.061
C21: A -0.977 ± 0.16, E -0.854 ± 0.11, F -0.515 ± 0.19, G -1.03 ± 0.13, I -0.803 ± 0.26, K -1.25 ± 0.32, M -0.969 ± 0.2, P -1.05 ± 0.19, Q -0.567 ± 0.17, R -0.962 ± 0.11, T -1.22 ± 0.26, V -1.11 ± 0.16, W -1.22 ± 0.26, Y -0.731 ± 0.32
G22: A -0.013 ± 0.044, C -0.178 ± 0.072, D 0.008 ± 0.11, E -0.017 ± 0.055, H -0.109 ± 0.12, I -0.259 ± 0.1, K -0.063 ± 0.059, L -0.094 ± 0.047, M -0.035 ± 0.055, N -0.236 ± 0.1
